Reference: patent US5689048

Tests used:
[1] = target: Mj-AMP2 (Mirabilis jalapa--Antimicrobial Protein 2) (Mirabilis jalapa)
[2] = target: Mj-AMP1 (Mirabilis jalapa--Antimicrobial Protein 1) (Mirabilis jalapa)

Substance: Chymotrypsin (enzyme)
- Relative antifungal activity (shown as % of control activity) after Chymotrypsin digestion (% of control activity) [1]: 50
- Relative antifungal activity (shown as % of control activity) after Chymotrypsin digestion (% of control activity) [2]: 12

Substance: Pronase E (enzyme)
- Relative antifungal activity (shown as % of control activity) after Pronase E digestion (% of control activity) [1]: 25
- Relative antifungal activity (shown as % of control activity) after Pronase E digestion (% of control activity) [2]: 50

Substance: Proteinase K (from UniProt P06873) (enzyme)
- Relative antifungal activity (shown as % of control activity) after Proteinase K digestion (% of control activity) [1]: 100
- Relative antifungal activity (shown as % of control activity) after Proteinase K digestion (% of control activity) [2]: 100

Substance: Trypsin (enzyme)
- Relative antifungal activity (shown as % of control activity) after Trypsin digestion (% of control activity) [1]: 100
- Relative antifungal activity (shown as % of control activity) after Trypsin digestion (% of control activity) [2]: 75
